From a protein production outcome set (Wang et al. 2014)

Assay: label from the status in PepcDB records
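Note: failed if final PepcDB status was selected cloned or expressed and not failed if soluble or beyond.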

## MKKRLLLFILVLGVCLFTSCGNFVKTNIYFSAAESAFDSGKYEDAIKYYDKVIEADSGNAMAYLGKGLALDALGKYEEALEFFDKAIEINKDLAKAYNAKGTTLASLERYEESLENFKKAAELKPKNSAYQNDVAYGLNNLGRFEEAIQYAEKALKLNPRSGVAYSNKGFALDALGKLDEAIECYDKAIELSPTYTNAYYNKSIAVFKMGKTEEAIELLDKVLEIDPDDLDAITSKGYCLNELGKYEKAIECFDTAIEKYPKDPYPYVCKATSLYYLGKYDNALEECNKAIKLEYTFPDSYIWKAKILVEKGDIEEARKSCDEFLAIAEDASVYDMKGQIYLHEYNYPEAIKLFDKAIEVDPSYEDSYINKIYCLYLQKNYKECIEFATKVQTIFPNSADIPWYIGDCYSIMMEPEKAIEYLKKAHELNPKDVGILTSIAWEYYSLEDYAKASEYAEKAAEISADDESVKYIREKLENQKLPEAEQIVEFVKNNYLYYDKIANFEALANEFKAKGEVGVKDICNFIESIRQKDDMFTFVIHGDDYDLLKYEESISQVTSQQLEPNIHYIKIKSFTASVSWEFKEIIDSIENPEEKVLVIDLRDNLGGLATSSADILDYLLPACTTSYIVYRDGYMYSYYSDAAQTKFKKILVLVNEYSASSSEILALGLKKHLNNVVIIGRPTVGKGVGQLVYENKSKKYMIYLVSFYWNVMEENILGKRIEPDVYVNSSSDAAYMNEVKRQAAR
  protein production: failed

## MQKGKDLTLRLMIVDDSVESAETIVTALRNGGIAVRPSRPQSQEELASMLSGQIDLAILGQAQQIPMSALQTQIAGSGKDIPILLLAERIEENALVEAASHGVRAIALRHRPAHLLALVRSEWDDLQARRGLRRIEAQMRETERRCDALIASSRDPIAYVHEGMHIRANDAYLEMFGFESFDDVEGISLLDMIAAQYVDDFKQLLKAMSKGEPPPAQYKLDARRVEGDTFPATMEFATATYEGEPCIQVVFRRREEFDPELAREVEDLRQRDQVTGLLNRPTFMVALEQAVAQAGRSEGQSGFLLIEPDHYARILPEFGLDSADALIAALAAHVASVLDDSVLAARFGEHSFALLLNGNYARTHALAETVRNAFAQHVFSVGTRSATVTVSIGGVQIGEKIASIGQVLNRGTEAVRTTAELGGNAVSIYDPAAADRAEEERIERWVEQLREALVGDGFLLHYQPVLNLQGEPLELYQAFLRLERNGEMMSPNAFMAIAEEHDLVTEIDRWVVARAIRQLGERQRAGHKTHLLVRIGPNSFSDPQMIDTIREQLAVYGVPGERLWLQTPESKVFTHLRNAQQFLAAVSAMDCKVGLEQFGSGLDSFQLLAHFHPAFLKLDRGITGDIASARDSQEKIREITSRAQPAGILTMAEFVADAQSMSSFFSAGVDYVQGDFVAPTGPLMNYEFG
  protein production: failed

## MSHVLVNVAWPYANGPRHIGHVAGFGVPSDVYARYERMKGNDVLMVSGTDEHGTPILVEAEKEGLTAQELANRYNRVIAKDLCDLGLSYDLFTRTTTGNHEHVVQEMFKQCLENGYIYKGSQQVAISPSTGRTLPDRYIEGECPICHAEGARGDQCDACGNELDPDELINPVSKINGETPRFEQTEHYFLDLPALAEANKAWLETRKGWRTNVINFSLGLFKEVKPRAITRDIDWGIPVPVKGWIDNPNKKLYVWFDAVIGYLSASIEWARRQGDPEKWREWWNDPKCPAYYFMGKDNITFHSQIWPSEMLAYNGKGSKGGETGPMGPLNLPEQVVASEFMTMEGKKFSSSRGIVIYVKDILARYPVDAVRYYISVAGPESSDSDFTWAEFVRHNNEELASSWGNLVNRVANLINKNFGEIPPLDEDSMTNEDRGLLEEASAAFDVVGSSIETHHQKHALSEAMRVVGDINKYISATEPWKIKDDQARLGTVLHVAAQAVSDANHLLAPFLPHSAQKVWEALGGTGTFSPLPELKEVEDLDKPGFTYPIITGDYELGVNVHPWKSEAIEVGAVVPKPAPIFAKIPTEAVEEELARFDEALAARRAAEAERLAAEKAKLAAE
  protein production: failed

## MSRSPEQDSDWMTGVGDSAAGESARVARLVRVAQHIEMHADEALTLSSLAKVAALSPSRLQKQFKAAFGVSPKAYQDAVRMRRFKQSLKDGSKVTDAIFASGFGSVSRVYGEANRSIGMPPRAYRAGGAGEVIVYAGRTTALGLMMMAATERGVCFVEFGDDEASLVGRLRSEFPKAELTASPARNAPELDAWMEALDQHISAGAPRPDLPLDMRGTAFQVKVWQFLLSIREGDVLSYSEVAARIDKPRAVRAVASACGKNRIGVLIPCHRVLRGDGGLGGYRWGLERKRALLEAERRSVTRE
  protein production: failed

## MSLKKLLLLLIIVALFISAFAFDLTQYLSLDVLKEKQQQLNQLFVDYPFQVFAIYFVVYVASTALSLPGATILTLGAGAIFGLGWGLLLASFAASLGAFLAFLSARFILHDWVQEKFGDRLTAINRGMERDGAFYLLSLRLVPLFPFFVINLVMGLTKIKAWTFYWVSQVGMLLGTAVYVNAGTQLAQISSLGDVISADLIGAFVLLGIFPLIAKAVLAFVKRRKAFKGYKKPKSFDNNLVVIGAGSAGLVSAYIAATVKAKVTLIEKHKMGGDCLNTGCVPSKALLHVAELAHNARNASSAGVHVGEVSVDFKQVMQQVKSVIKDIEPHDSVERYTKLGVDVEQGDARIVSPWEVEVTSNVEGKSETKRITTRSIIIATGAKPLVPDFEGLDKVDYLTSDTLWELDELPKRLLVLGGGPIGCELSQAFQRLGSQVTQVEMAERLMGPEDADTVELLTRRLTAEGIDIRLNHKALRFEQHNGESVLIAEQTVDNESVDNQNADQSKDVEIPFDKVLIALGRQPNITGFGLEELGVQTNKTVSTNELLQTNFPNIYACGDVAGPYQLTHVASHQAWYASVNALFDPFKTFRADYSVIPWVTYTSPQVANVGLTEQQAKKADKPYEVTEYDIGELDRAIADDSAYGRVKVLTKPGKDELLGVNIVGPQAGELLAEYVLAMKYGIGLNKILGTIHSYPTLAEANKYVAGEWKRANAPQKLLTWVEKFHRWRRS
  protein production: failed

## MSFTGKDYSRFRSQQQRGNPHSSEGNTSAVHGTGQNSRPQTPINQASGASPQQGNQSPNGSVNHANPLASRLNDITLDELLDSLGRAGLLRLDPNRPPGTFWFEDDPSVPATVRSIFERDFKELHANWSMTPQHVVDRWFETFAQMYNWDKTINKRVKTEFEAKLKERMTDQVCRWKGKWREKGDAAMPRWFDPAVWAGLISFWRDPKSELKSINSRNARLHDPDGLGIHKHRSGQTSYKAHARKRCELTGETTPNFLVLLDKTHRKPDGSFIDGKSEEIYNEVSSRIQEESSQLCSNNTTESTASGGGSKEEREDIWGWFIAARSRMSSHWSFSSSRRSG
  protein production: failed

## MTKEPRNLSEWIKELKKASREAVILVEGKNDKKALSKFSIKNVIDLSGKRYADVVDMLEGKWEKVILLFDLDTHGERINQKMKELLSSQGFLVDENFRNFLKKWNIIHIEEINGGKNS
  protein production: not failed

## MWSFIQKIFKALIIAPLDFITKYFKSFVLLLIVLVFFSAKESAPSAPPNLAKLYLNGAIFSTEDFDKEVDKILKTPSIKGVLLLIDSPGGAVSASVELSEKIADLKQKMPVLAYARGVMASGSYYAGMQASEVYASKASLIGSIGVIFSGANVENLLNKVGVATQGVHAGEYKEIGTFTRAWKPNEKDFLQNLVNEQYQMFVNDVAKARKLDAKDYKDFAEGKVFSAQKALKLKLIDKISTIKQAQDRLMELSKVKKAYWLEKSPMERFIEKATQSATNIITQAFGYQLLMR
  protein production: failed

## MKEKVSVPFMLLGILFNVCLIAANLLETKVIQVGSITVTAGLLVFPISYIINDCIAEVWGFKKARLIIWSGFAMNFFVVALGLIAVALPAAPFWEGEQHFDFVFGMAPRIVVASLLAFLVGSFLNAYVMSKMKVASGGRNFSSRAIWSTMVGETADSLIFFPIAFGGLIAWPELLVMMGTQIVLKSLYEVIILPITIRVVKAVKRIDGSDVYDTDISYNVLKVKDI
  protein production: failed

## MSASAPQAHGPAATGTVTTDVPARLDRLPWSRWHWMIVIGLGTVWILDGLEVTTVGNIAGRLSEDGSGLSITSAQVTGVAAALYVAGACAGALFFGWLTDRFGRKKLFMVTLVVYLSATALTALSFNSWWFFTFRFLTGFGIGGEYAAINSAIDELIPAKYRGRVDLIINGSYWLGAIGGALLSIVMLDTSIFPKDLGWRLTFALGVVLGLVILLVRRHVPESPRWQFIHGRGEDAEALVSSVEREIEQEKGEPLPRAESEITIEQRKSIGFGLIAKTVFGRYPKRAVLGLALFIGQAFLYNAITFGFGAILTTFYDVPTGGTGYYFAVIAAGNFIGPLLLGKLFDTVGRRIMIASTYLLSGLLLFGTAWLFDRGSLSAMTLTACWCAVLFFASAGASSAYLTVSEVFPMETRAMAIAFFYALGTAAGGISGPLVFADLTESGVVGDTVLAFQIGAGLMCAAGLVAAFLAVNAERRSLEDIAEPLSVAQTTAPAPASASGT
  protein production: failed

## MLKGKYTKIEKVNGVEREYLITDKYGITIGRIFIVDLNKDNRFCMFRMKIYKQGKSINTYIKEILSVFMEFLFKSNDINKVNIIVDEEVSTQPFVELGFAFEGIINKSIIEKNVLKDEFLFGMDYKNYNSDRINVFKLYGKSITLKVLTPEDAENMLQYYIKNKEHLKPFEPEREESFYTFEAQKQMLIENYKQFINGEGTNFGIYKDAKLIGKIQISGTIYGVFKSAIIGYSIDKDYQGKGYMKDALRVAEAYAFNVMNLHRIEASALVDNLRSQNVLIGCGFEKLGINKNYLFINGRWQDHITFYKTNNN
  protein production: failed

## MMLAVEDVLSELAGEERNERGLPPGFRFHPTDEELITFYLASKIFHGGLSGIHISEVDLNRCEPWELPEMAKMGEREWYFYSLRDRKYPTGLRTNRATTAGYWKATGKDKEVFSGGGGQLVGMKKTLVFYKGRAPRGLKTKWVMHEYRLENDHSHRHTCKEEWVICRVFNKTGDRKNVGLIHNQISYLHNHSLSTTHHHHHEALPLLIEPSNKTLTNFPSLLYDDPHQNYNNNNFLHGSSGHNIDELKALINPVVSQLNGIIFPSGNNNNDEDDFDFNLGVKTEQSSNGNEIDVRDYLENPLFQEASYGLLGFSSSPGPLHMLLDSPCPLGFQL
  protein production: failed

## MYSYADRLRAVELYIRLGKRLNTTIRQLGYPTKNALRGWYREYVQHLDLRTQPVARAPKYSEAQRQAALEHFRTHDRCISGTMRALGYPGRGTLTAWVREAFPEARTSMVGRSWHPGYSEEVRQAGVIGLCSGDESAQQVADRLGVSRPTLYSWKDQLLGHEASSSMKRRKANPKVPEREELERKLEALQRDVRQLQLEHDLLKKANELLKKGLGVDLLILSNREKTQLIDALKEVYRLPELLAQLRIARSSYFYHRARMCLADKYAAVRLSLAEIFEANRRCYGYRRLQASLARKSVIVSEKVVQRLMKQEHLAVARPRRRRFGSYLGEISPAPENLINRDFHADAPNVKWLTDITEFQIPAGKVYLSPIIDCFDGMVISWSIGTQPDAGLVNTMLDAAIGTVANGEERPIIHSDRGAHYRWPGWLTRISEARLVRSMSRKGCSQDNAACEGFFGRLKTELFYPRDWKAITIEQFVAEVDAYIRWYNEKRIKISLGSLSPVEYRQSLGLKLLEHHHHHH
  protein production: not failed

## MKKRVQNKRFARTICDGNNPSQIATDLRDICEGEKTRRFSVANFARDNSLAILREICEELARTKKFLAKSLQIARDLQVQILFCGNFCDETYKDRDFAGWLKLYVTNGCENELLLLWLYEIVQEPRSKITTAKSFVVDVNANKTYAKFKPFILASQAFYLTRV
  protein production: not failed

## MSSEHSANGGPASAYGKPTFARASTPLPIQSAHMASDPIQITPSLTIPPSELVERFVRASGAGGQNVNKVSTAVELRFDVAGSPSLPEPLRARLLSRRDRRMTAEGVLVIDAQRFRTQDRNRDDARERLAEIISACLSVPKRRVATKPSHGAKLRRLDAKRERSHIKRGRSASHWE
  protein production: failed

## MIYKITLTDISLAQAFISIPQDVIALDLSNNLLGSKSCVDLLVNIADCIPAGVTSLDLSSNGLRLTQVSLVTPKHVTSLNLCFNPLHEISIDGLEWLKDSLAHIQIIYLSYDMVNNMSREQRQAFRAVIPNIQTIILVDKNGKEIGPSHTAKIANLISELGGGNPEVPSLLNQCTFFVKTQGINIDKAYIPEELKKRIHDCNPL
  protein production: failed
